Test results from publication PMC3171962.

Target: hisPcrH (Pseudomonas aeruginosa T3S chaperone PcrH with an N-terminal polyHis tag) (P. aeruginosa PAO1) (UniProt Q9I325)
Experiment: SEC

Substance	stoichiometry N
PopD (native, untagged P. aeruginosa T3S translocator) (from UniProt Q9I323 1-295) (natural protein)	1
PopB (native, untagged P. aeruginosa T3S translocator) (from UniProt Q9I324 1-390) (natural protein)	1
